{"source": "paper doi:10.1101/2023.01.09.523258", "about": "(bioRxiv, 2023)", "proteins": {"B1": {"name": "Conalbumin (Ovotransferrin/OVT) from chicken egg white (natural protein, UniProt P02789 20-705, looked up)", "chain": "APPKSVIRWCTISSPEEKKCNNLRDLTQQERISLTCVQKATYLDCIKAIANNEADAISLDGGQAFEAGLAPYKLKPIAAEVYEHTEGSTTSYYAVAVVKKGTEFTVNDLQGKTSCHTGLGRSAGWNIPIGTLLHRGAIEWEGIESGSVEQAVAKFFSASCVPGATIEQKLCRQCKGDPKTKCARNAPYSGYSGAFHCLKDGKGDVAFVKHTTVNENAPDQKDEYELLCLDGSRQPVDNYKTCNWARVAAHAVVARDDNKVEDIWSFLSKAQSDFGVDTKSDFHLFGPPGKKDPVLKDLLFKDSAIMLKRVPSLMDSQLYLGFEYYSAIQSMRKDQLTPSPRENRIQWCAVGKDEKSKCDRWSVVSNGDVECTVVDETKDCIIKIMKGEADAVALDGGLVYTAGVCGLVPVMAERYDDESQCSKTDERPASYFAVAVARKDSNVNWNNLKGKKSCHTAVGRTAGWVIPMGLIHNRTGTCNFDEYFSEGCAPGSPPNSRLCQLCQGSGGIPPEKCVASSHEKYFGYTGALRCLVEKGDVAFIQHSTVEENTGGKNKADWAKNLQMDDFELLCTDGRRANVMDYRECNLAEVPTHAVVVRPEKANKIRDLLERQEKRFGVNGSEKSKFMMFESQNKDLLFKDLTKCLFKVREGTTYKEFLGDKFYTVISSLKTCNPSDILQMCSFLEGK"}}, "biological_target": "the molecule itself", "assay": "native MS"}
{"protein": "B1", "values": [{"measurement": "stoichiometry N", "value": 2}]}
